Test results as given in publication PMC9409278, “Conformational Changes of α-Crystallin Proteins Induced by Heat Stress” (International Journal of Molecular Sciences, 2022).

Target: the molecule itself
Experiment: SEC; HiPrep Sephacryl S-300 HR 16/60 column, 20 mM phosphate buffer, pH 7.4, 150 mM NaCl; each crystallin alone

B1: αB crystallin (natural protein, human, UniProt P02511 1-175, looked up)
chain: MDIAIHHPWIRRPFFPFHSPSRLFDQFFGEHLLESDLFPTSTSLSPFYLRPPSFLRAPSWFDTGLSEMRLEKDRFSVNLDVKHFSPEELKVKVLGDVIEVHGKHEERQDEHGFISREFHRKYRIPADVDPLTITSSLSSDGVLTVNGPRKQVSGPERTIPITREEKPAVTAAPKK
notes: αB crystallin, human, open reading frame of the full-length gene in pET28; Homo-oligomer in solution; No removal of the His tag is mentioned; also called alpha-B crystallin; source: E. coli BL21(DE3), purified (Ni-NTA, size-exclusion chromatography)
  binding result: binds
